This note sets out measurements from patent US5736356A, “Transglutaminase originating from Crassostrea gigas” (Ajinomoto Co., Inc., priority 1994, dated 1998).

Data set [1] addresses dimethylated casein.
For data set [2], the target named is dimethylated casein. This is another data set of the same source.
Data set [3] deals with dimethylated casein. This is another data set of the same source.
In data set [4] the test system is dimethylated casein and monodansylcadaverine. As to the kind of experiment: Effect of NaCl and Ca2+ on enzyme activity. The settings on record: for effect of NaCl concentration on enzyme activity (in words): increasing NaCl concentration. In kind it is biochemical.
Data set [5] relates to methylated casein and monodansylcadaverine. As to the kind of experiment: Transglutaminase activity of crushed cell supernatant of transformed Escherichia coli (pCGTG4E). In kind it is biochemical. Particulars: cultivation temp. 26° C.; control: 1.2 μg protein. The source says: Then the transglutaminase activity of the crude extract was investigated by an activity-detection method which made use of an increase in the intensity of fluorescent light (the fluorescent intensity observed at 480 nm while exciting with the light rays of 350 nm) due to the linkage of monodansylcadaverine to methylated casein as an indication. This activity-detection method is the method disclosed in Nippon Suisan Gakkaishi, 1991, 57, pp. 1203-1210 which is slightly modified. More specifically, 20 μl of each crude extract was added to 2 ml of a solution comprising 50 mM Tris-HCl buffer (pH 8.5), 1 mg/ml methylated casein, 15 μM monodansylcadaverine and 10 mM calcium chloride, followed by stirring and keeping warm at 37° C. for 20 minutes. After the reaction, 100 μl of 500 mM EDTA solution was added to the reaction system and each reaction solution was inspected for the intensity of emitted fluorescent light using a fluorophotometer (Shimadzu RF-1500, available from Shimadzu Corporation).
The colony of the transformant (FERM BP-4962) thus obtained was inoculated on 50 ml of LB culture medium (comprising 10 g/l of trypton, 5 g/l of yeast extract and 10 g/l of NaCl (pH 7.0)) supplemented with 50 mg/l of ampicillin and 10 mM of IPTG contained in a Sakaguchi flask, followed by cultivation at 26° C. for 21 hours and collection of the bacterial cells from the culture medium. […]

For data set [6] the test system is unchanged. In words: Transglutaminase activity of crushed cell extract of transformed Saccharomyces cerevisiae. The settings on record: 0.35 ml supernatant, GAL1 induced; control: 1.2 μg protein. The data set is classed as biochemical.
Data set [7] has the same test system. As to the kind of experiment: Transglutaminase activity of yeast crushed cell extract while changing the NaCl concentration. In kind it is biochemical. The settings on record: control: 1.2 μg protein. The source says: The crushed cell extract of the foregoing Saccharomyces cerevisiae INVSC2/pCGTG4S AJ14697 (FERM BP-4964) was inspected for the transglutaminase activity while changing the NaCl concentration in the reaction solution by way of comparison (Table 7).

The test system of data set [8] is dimethylated casein and monodansylcadaverine. In words: Transglutaminase activity of purification fractions (monodansylcadaverine incorporation into dimethylated casein, fluorescence). The data set is classed as biochemical. The method, then: The activity of the transglutaminase is determined by reacting the enzyme with dimethylated casein and monodansylcadaverine as substrates and measuring an increase in the fluorescent intensity of casein due to the incorporation of monodansylcadaverine into the dimethylated casein. The composition of the reaction solution is as follows:
To 2.4 ml of the foregoing reaction solution, there is added 20 to 50 μl of the transglutaminase solution followed by carrying out the reaction at 37° C. for 30 min, terminating the reaction by addition of 100 μl of a 500 mM EDTA solution and then determining the fluorescent intensity of the reaction solution (using a device: RF-1500 available from Shimadzu Corporation; excitation wavelength: 350 nm; wavelength of emitted fluorescent rays: 480 nm). In respect of the unit of the activity, that required for increasing the fluorescent intensity by 1.0 within one minute is herein defined to be one unit.
Thus, the purified transglutaminase originating from Crassostrea gigas was obtained.

The subject of a further data set is casein. In words: Control of gelation of casein solution by NaCl and CaCl2. The data set is classed as biochemical. More on the design: key to degree of gelation: -: the solution was still in the solution state; ±: the solution was a high viscosity product; +: the solution was a gelated product. The method, then: To an aqueous solution of casein (available from Sigma Company) having a protein concentration of 1% by weight, there was added NaCl in such an amount that the concentration thereof was 0, 0.1 or 0.3M, while variously changing the calcium chloride concentration within the range of from 0 to 200 mM to thus investigate the gelation of the protein. In this connection, the purified transglutaminase was added in an amount corresponding to 4.0 units per 1 mg of the protein. After carrying out the reaction at 37° C. for 90 minutes, the degree of gelation was evaluated.

In turn, “transglutaminase originating from Crassostrea gigas (purified from natural Crassostrea gigas) (enzyme)” had a Specific Activity (unit/mg): incorporation of monodansylcadaverine into dimethylated casein, fluorescence with dimethylated casein [1] of 1400 unit/mg.

Take “TGase originated from Cavia porcellus (available from Takara Co., Ltd.) (from UniProt P08587) (enzyme)”: the Increase in Fluorescent Intensity/Cultivation Temp. (increase in fluorescent intensity) with dimethylated casein [2] came to 4.3.

For “recombinant type transglutaminase of Crassostrea gigas expressed in Saccharomyces cerevisiae INVSC2/pCGTG4S (enzyme)”, the Increase in Fluorescent Intensity (increase in fluorescent intensity) in the data set with dimethylated casein [3] turned out to be 46.6.

As to “fusion protein of β-galactosidase and the TGase of Crassostrea gigas expressed by plasmid pCGTG4E (enzyme)”, in the data set with dimethylated casein [2], the Increase in Fluorescent Intensity/Cultivation Temp. (increase in fluorescent intensity) was 12.8.

B1: TGase of Cavia porcellus: TGase originated from Cavia porcellus (available from Takara Co., Ltd.), used as control (protein)
chain: AEDLILERCDLQLEVNGRDHRTADLCRERLVLRRGQPFWLTLHFEGRGYEAGVDTLTFNAVTGPDPSEEAGTMARFSLSSAVEGGTWSASAVDQQDSTVSLLLSTPADAPIGLYRLSLEASTGYQGSSFVLGHFILLYNPRCPADAVYMDSDQERQEYVLTQQGFIYQGSAKFINGIPWNFGQFEDGILDICLMLLDTNPKFLKNAGQDCSRRSRPVYVGRVVSAMVNCNDDQGVLQGRWDNNYSDGVSPMSWIGSVDILRRWKDYGCQRVKYGQCWVFAAVACTVLRCLGIPTRVVTNFNSAHDQNSNLLIEYFRNESGEIEGNKSEMIWNFHCWVESWMTRPDLEPGYEGWQALDPTPQEKSEGTYCCGPVPVRAIKEGHLNVKYDAPFVFAEVNADVVNWIRQKDGSLRKSINHLVVGLKISTKSVGRDEREDITHTYKYPEGSEEEREAFVRANHLNKLATKEEAQEETGVAMRIRVGQNMTMGSDFDIFAYITNGTAESHECQLLLCARIVSYNGVLGPVCSTNDLLNLTLDPFSENSIPLHILYEKYGDYLTESNLIKVRGLLIEPAANSYVLAERDIYLENPEIKIRVLGEPKQNRKLIAEVSLKNPLPVPLLGCIFTVEGAGLTKDQKSVEVPDPVEAGEQAKVRVDLLPTEVGLHKLVVNFECDKLKAVKGYRNVIIGPA
For B1, in [4], the “effect of NaCl concentration on enzyme activity (in words)” value was “did not show any increase”. The figures for the “Increase in Fluorescent Intensity” value in [5], in [6] and in [7] were 4.3, 3.4 and 3.5, respectively.

B2: purified transglutaminase: transglutaminase isolated and purified from Crassostrea gigas (Japanese oyster); Mono-Q active fraction (protein)
chain: AFWGVFYTIYSGIRRIAGQPPEEDTSDKEQKRSRTKKALGSEEEEGRISSLSDEDLRARNKVLEPKDEPSATLNVSSVDCQTKLNRKNHHTNEFEKAGNIYRRGQAFVIRVEFDREVNSDHDVILLQFTYGSRPQESKGTVIRIPLDLKPTTKTSDVTETWFAEVKNIAGKGLECAITSAPDSSIGEYRFYIETNLKDTDAVKRYEENESMIILFNAWAKEDTVYMDKEGERGEYVLNETGRVWTSRTWYGRPWNFGQFDDPVLDVALQLLLEGGLSDVACTSPVSVIRCLSSLCNSCDNNGVLAGRWTKEYPKDCTVPWKWTGSVAIIKEYHTNGNKPVRYGQCWVFSGLLTTMCRCLGIPTRSVTNFDSAHDTDSSMTIDSHWDEDGEPLEDMNDSVWNFHVWNESWFRRLDLPEGYDGWQAHDATPQEASEGIMRCGPAPLTAIKEGHVYLNFDIPFVFGEVNGDRVQWVVKKDGTMEVSQIDHSAVGHYISTKRMGSNDREDVTNLYKYPDGSEQERRVAKFVNRYSTRRKQNIYKLDTTKVLKFTVSPPDNTLIGDDMEIKVAVKNTADGPLKLHLTVSLVNAYYTGVAGSRVKTQTFEETIKAKDEKIVTMPVKGTEYHDGMNPEGRFQLYISGKNIDSGSMESTQISFVLKKPQLVIQVPQTIEAKEETEATIVFKNTTQLVLTQAEIAVEGSGLLAPQTIDISSPIKPGDEVKKTVVLRPRKPYYWGRELIATFTSKQIVDIETSADIKVIRQNKDNDSDSD
Consider B2, for which the specific activity was 1404 units/mg protein in [8] (Mono-Q active fraction) and 1404 unit/mg in data set [8] (purification step, Table 1). In addition, the total activity in [8] (Mono-Q active fraction) is on record as 358 units; in data set [8] (purification step, Table 1), 368 unit. Also, in data set [8] (purified solution vs crude extract), the “specific activity relative to that of the crude extract” value is reported as “about 250 times”. In data set [4], the “effect of addition of KCl on enzyme activity (in words)” value is “improved”. Also, the “maximum activity in the presence of NaCl relative to that in the absence” value in data set [4] is recorded as “about 2 times”. Besides, the “Ca2+ concentration at which the activity reached the highest level” value is reported as “about 100 mM” in data set [4] (in the absence of NaCl) and “about 10 mM” in data set [4] (in the presence of NaCl (0.5M)). In [4], the “effect of NaCl concentration on enzyme activity (in words)” value is recorded as “increased as the NaCl concentration increased”. In addition, the degree of gelation result is on record as “-” in the data set on casein (NaCl 0 M, CaCl2 0 mM, 1% casein, 4.0 units/mg, 37° C. 90 min); “-” with casein (NaCl 0 M, CaCl2 10 mM); “-” with casein (NaCl 0 M, CaCl2 25 mM); “±” in the data set on casein (NaCl 0 M, CaCl2 50 mM); “+” with casein (NaCl 0 M, CaCl2 100 mM); “+” in the data set with casein (NaCl 0 M, CaCl2 200 mM). The degree of gelation result with casein (NaCl 0.1 M, CaCl2 0 mM) is reported as “-”; in the data set on casein (NaCl 0.1 M, CaCl2 10 mM) it was “-”; with casein (NaCl 0.1 M, CaCl2 25 mM) it was “±”; in the data set on casein (NaCl 0.1 M, CaCl2 50 mM) it was “+”; in the data set with casein (NaCl 0.1 M, CaCl2 100 mM), “+”; with casein (NaCl 0.1 M, CaCl2 200 mM), “±”. The degree of gelation entry is listed as “-” in the data set on casein (NaCl 0.3 M, CaCl2 0 mM); “±” in the data set with casein (NaCl 0.3 M, CaCl2 10 mM); “+” in the data set with casein (NaCl 0.3 M, CaCl2 25 mM); “+” in the data set on casein (NaCl 0.3 M, CaCl2 50 mM); “+” in the data set with casein (NaCl 0.3 M, CaCl2 100 mM); “+” with casein (NaCl 0.3 M, CaCl2 200 mM). In addition, the “Ca2+ concentration at which the casein solution underwent gelation” value in the data set on casein (NaCl 0.3M) is on record as “not less than 25 mM”; in the data set on casein (free of NaCl) it was “not less than 100 mM”.
